Tests used:
Test in all cases: flow cytometry on transiently transfected cells
[1] = biological target: T1, LTβR on transiently transfected cells (UniProt P36941 31-435, limits assumed)
T1 construct: whole, on cells
Description: (§1) One million cells, in 0.1 ml of FACS buffer (PBS, 0.1% BSA, 0.1% NaN₃), were incubated with 0.1-1 microgram of protein or antibody at RT for 15 min. The cells were washed with 3 ml of FACS buffer, reacted with biotinylated primary antibody, and stained with PE-conjugated secondary antibody at RT for 15 min. Cells were then washed again, resuspended in 0.5 microgram/ml of propidium iodide, and live cells were gated and analyzed on a FACScan using the CellQuest software (BD Biosciences).

[2] = biological target: T2, CD27 on transiently transfected cells (UniProt P26842 20-260, limits assumed)
T2 construct: whole, on cells
T2 sequence (looked up): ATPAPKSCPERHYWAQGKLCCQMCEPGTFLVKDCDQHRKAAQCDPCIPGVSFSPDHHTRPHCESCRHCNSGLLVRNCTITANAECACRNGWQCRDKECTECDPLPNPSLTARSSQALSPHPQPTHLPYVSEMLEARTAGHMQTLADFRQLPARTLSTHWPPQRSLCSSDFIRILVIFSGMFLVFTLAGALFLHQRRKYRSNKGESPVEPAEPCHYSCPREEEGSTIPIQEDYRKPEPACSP
Description: as §1

[3] = biological target: T3, DR6 on transiently transfected cells (UniProt O75509 42-655, limits assumed)
T3 construct: whole, on cells
T3 sequence (looked up): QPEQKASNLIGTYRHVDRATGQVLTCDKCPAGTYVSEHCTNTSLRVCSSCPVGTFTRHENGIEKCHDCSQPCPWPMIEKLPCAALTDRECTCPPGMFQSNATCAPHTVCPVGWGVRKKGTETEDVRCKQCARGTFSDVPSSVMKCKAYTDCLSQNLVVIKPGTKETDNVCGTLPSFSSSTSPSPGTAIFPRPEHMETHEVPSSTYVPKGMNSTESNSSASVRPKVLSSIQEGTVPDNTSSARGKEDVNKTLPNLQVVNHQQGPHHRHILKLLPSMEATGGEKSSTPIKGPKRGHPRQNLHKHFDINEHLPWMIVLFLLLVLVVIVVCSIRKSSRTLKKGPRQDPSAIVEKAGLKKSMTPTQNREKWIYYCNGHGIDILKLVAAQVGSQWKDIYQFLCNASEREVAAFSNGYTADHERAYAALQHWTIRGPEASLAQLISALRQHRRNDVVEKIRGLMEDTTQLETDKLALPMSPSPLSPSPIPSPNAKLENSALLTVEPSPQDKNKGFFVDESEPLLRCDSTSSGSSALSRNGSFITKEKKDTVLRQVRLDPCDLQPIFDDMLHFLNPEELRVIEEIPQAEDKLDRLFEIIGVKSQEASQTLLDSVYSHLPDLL
Description: as §1

[4] = biological target: T4, DcR1 on transiently transfected cells (UniProt O14798 26-236, limits assumed)
T4 construct: whole, on cells
T4 sequence (looked up): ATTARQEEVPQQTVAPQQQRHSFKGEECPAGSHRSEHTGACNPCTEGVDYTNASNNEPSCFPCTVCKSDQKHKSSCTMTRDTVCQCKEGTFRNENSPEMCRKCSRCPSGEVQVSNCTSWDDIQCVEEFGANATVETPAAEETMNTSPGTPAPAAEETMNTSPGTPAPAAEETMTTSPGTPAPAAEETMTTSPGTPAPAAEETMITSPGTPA
Description: as §1

[5] = biological target: T5, RANK on transiently transfected cells (UniProt Q9Y6Q6 30-616, limits assumed)
T5 construct: whole, on cells
T5 sequence (looked up): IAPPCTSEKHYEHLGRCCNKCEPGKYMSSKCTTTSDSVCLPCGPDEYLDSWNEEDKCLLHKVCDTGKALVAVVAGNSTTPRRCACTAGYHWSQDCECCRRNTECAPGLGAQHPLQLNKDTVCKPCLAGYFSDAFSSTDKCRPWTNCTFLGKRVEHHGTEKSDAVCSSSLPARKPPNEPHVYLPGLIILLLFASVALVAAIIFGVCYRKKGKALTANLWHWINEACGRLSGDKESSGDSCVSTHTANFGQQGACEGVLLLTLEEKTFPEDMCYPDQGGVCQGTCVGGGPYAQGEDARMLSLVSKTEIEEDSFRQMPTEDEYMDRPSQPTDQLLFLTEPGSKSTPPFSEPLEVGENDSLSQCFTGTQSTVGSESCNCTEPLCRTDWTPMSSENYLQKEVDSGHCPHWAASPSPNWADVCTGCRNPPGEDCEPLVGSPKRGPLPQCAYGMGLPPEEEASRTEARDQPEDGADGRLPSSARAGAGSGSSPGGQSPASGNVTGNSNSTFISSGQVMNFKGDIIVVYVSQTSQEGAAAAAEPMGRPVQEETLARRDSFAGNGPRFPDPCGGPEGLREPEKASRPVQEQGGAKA
Description: as §1

Measured: binding result

T1 sequence (P36941 31-435 limits assumed): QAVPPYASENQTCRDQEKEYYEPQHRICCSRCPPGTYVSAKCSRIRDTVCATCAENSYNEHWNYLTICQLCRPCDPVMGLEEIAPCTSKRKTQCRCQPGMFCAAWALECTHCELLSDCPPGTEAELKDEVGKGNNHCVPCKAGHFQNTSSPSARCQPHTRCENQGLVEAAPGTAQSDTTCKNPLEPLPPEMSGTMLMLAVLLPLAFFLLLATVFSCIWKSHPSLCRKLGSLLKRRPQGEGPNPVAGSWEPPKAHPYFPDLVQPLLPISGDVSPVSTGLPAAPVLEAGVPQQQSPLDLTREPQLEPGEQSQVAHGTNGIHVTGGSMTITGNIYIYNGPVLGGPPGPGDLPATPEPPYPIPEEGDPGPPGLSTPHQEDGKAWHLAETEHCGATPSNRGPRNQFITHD

B1: FLAG-tagged soluble TNF-gamma-beta (aa 72-251) (ligand, human)
chain: DYKDDDDKLKGQEFAPSHQQVYAPLRADGDKPRAHLTVVRQTPTQHFKNQFPALHWEHELGLAFTKNRMNYTNKFLLIPESGDYFIYSQVTFRGMTSECSEIRQAGRPNKPDSITVVITKVTDSYPEPTQLLMGTKSVCEVGSNWFQPIYLGAMFSLQEGDKLMVNVSDISLVDYTKEDKTFFGAFLL
notes: also called FLAG-TNF-gamma-beta; FLAG-TL1β
no binding: all assays above

— patent publication US20090226456A1 (published 2009)
